Test results from patent US20250242064A1, “CXCR4-TARGETING COMPOUNDS, AND METHODS OF MAKING AND USING THE SAME” (PROVINCIAL HEALTH SERVICES AUTHORITY, priority 2022, published 2025).
Where a SMILES comes first, the peptide text is derived from it. Bridges are numbered along the chain shown (N, C = ends). Side-chain parts run from the residue outwards. [ ]: non-standard residue; d: D form. The star is where a group is joined. X1 = O=C(O)CN1CCN(CC(=O)O)CCN(CC(=O)N[C@@H](CS(=O)(=O)O)C(=O)N[C@@H](CCCCNC(=O)CCCc2ccc(I)cc2)C(=O)*)CCN(CC(=O)O)CC1; X6 = COc1ccc(CCCC(=O)NCCCC[C@H](NC(=O)[C@H](CS(=O)(=O)O)NC(=O)CN2CCN(CC(=O)O)CCN(CC(=O)O)CCN(CC(=O)O)CC2)C(=O)*)cc1; X7 = COc1ccc(CCCC(=O)NCCCC[C@H](NC(=O)CN2CCN(CC(=O)O)CCN(CC(=O)O)CCN(CC(=O)O)CC2)C(=O)*)cc1; X2 = O=C(O)CN1CCOCCN(CC(=O)O)CCN(CC(=O)*)CCOCCN(CC(=O)O)CC1; 2Nal = N[C@@H](Cc1ccc2ccccc2c1)C(=O)O; Lys(iPr) = CC(C)NCCCC[C@H](N)C(=O)O; Cya = N[C@@H](CS(=O)(=O)O)C(=O)O

Legend:
[1] = target: CXCR4 (Homo sapiens, UniProt P61073); assay: Competitive binding assay, [125I]SDF-1α displacement on CHO:CXCR4 cells; set-up: expressed in transfected cells; host or cells: CHO:CXCR4 cells; conditions: [125I]SDF-1α 0.01 nM, 1 h at 27° C., read-out: IC50 (nM), binding affinity for hCXCR4
Chain of CXCR4 (P61073 whole entry): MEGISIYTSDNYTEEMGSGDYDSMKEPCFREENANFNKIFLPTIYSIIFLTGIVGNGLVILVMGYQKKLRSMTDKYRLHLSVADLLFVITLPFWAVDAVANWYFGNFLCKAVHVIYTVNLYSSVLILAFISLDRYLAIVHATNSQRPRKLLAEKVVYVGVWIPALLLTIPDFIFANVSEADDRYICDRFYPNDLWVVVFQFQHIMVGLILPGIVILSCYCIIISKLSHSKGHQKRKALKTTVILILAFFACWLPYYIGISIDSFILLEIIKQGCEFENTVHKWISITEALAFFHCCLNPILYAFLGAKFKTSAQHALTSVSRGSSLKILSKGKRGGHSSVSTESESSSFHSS
Method: CHO:CXCR4 cells were seeded at a density of 1×10^5 cells/well in 24-well poly-D-lysine coated plates (Corning BioCoat) and incubated with [^125I]SDF-1α (0.01 nM, PerkinElmer) and competing nonradioactive ligands ([…]). The cells, radioligand, and competing peptides were incubated for 1 h at 27° C. with moderate shaking. Following the incubation period, the supernatant was aspirated, followed by three washes with 1 mL of ice-cold PBS. Cells were harvested with 200 μL of trypsin and counted on a y counter. Data were plotted in GraphPad Prism 7 to determine IC50 values (GraphPad Software, Inc., La Jolla, CA). The values are reported as mean±standard deviation.

[2] = tested on: Z138 tumor-bearing mice; assay: in vivo; conditions: male, NOD.Cg-Rag1tm1Mom Il2rgtm1Wjl/SzJ (NRG), mouse, iv
Method in brief: (§1)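 Male NRG mice bearing subcutaneous Z138 mantle cell lymphoma xenografts (5×10^6 cells, grown to 200-300 mm^3) injected intravenously under isoflurane with 68Ga-labelled tracers. Harvested tissues weighed and gamma-counted; uptake expressed as % ID/g.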

[3] = in vivo; set-up: species or system mice; conditions: male, NOD.Cg-Rag1tm1Momll2rgtm1Wjl/SzJ (NRG), mouse, iv, total radioactivity, Mean; for tissue uptake at 1 h / tissue uptake at 3 h / tissue uptake at 24 h / tissue uptake at 72 h / tissue uptake at 120 h: Biodistribution
Method in brief: as §1

## COc1ccc(CCCC(=O)NCCCC[C@H](NC(=O)CN2CCN(CC(=O)O)CCN(CC(=O)O)CCN(CC(=O)O)CC2)C(=O)N[C@@H](CS(=O)(=O)O)C(=O)NCCCC[C@@H]2NC(=O)CC[C@H](C(=O)N[C@@H](CCCCNC(C)C)C(N)=O)NC(=O)[C@@H](C)NC(=O)[C@H](Cc3ccc4ccccc4c3)NC(=O)[C@@H](CCCNC(=N)N)NC(=O)[C@H](CCCCNC(C)C)NC(=O)[C@H](Cc3ccc(O)cc3)NC2=O)cc1 [BL34L6] (K([Cya-X7])Y[Lys(iPr)][dR][2Nal][dA][dE][Lys(iPr)]-NH2; lactam N-7)
[1]
  IC50: 10 to 50 nM

## COc1ccc(CCCC(=O)NCCCC[C@H](NC(=O)[C@H](CS(=O)(=O)O)NC(=O)CN2CCN(CC(=O)O)CCN(CC(=O)O)CCN(CC(=O)O)CC2)C(=O)NCCCC[C@@H]2NC(=O)CC[C@H](C(=O)N[C@@H](CCCCNC(C)C)C(N)=O)NC(=O)[C@@H](C)NC(=O)[C@H](Cc3ccc4ccccc4c3)NC(=O)[C@@H](CCCNC(=N)N)NC(=O)[C@H](CCCCNC(C)C)NC(=O)[C@H](Cc3ccc(O)cc3)NC2=O)cc1 [BL34L7] (K(X6)Y[Lys(iPr)][dR][2Nal][dA][dE][Lys(iPr)]-NH2; lactam N-7)
[1]
  IC50: 10 to 50 nM

## CC(C)NCCCC[C@H](NC(=O)[C@H]1CCC(=O)N[C@@H](CCCCNC(=O)[C@H](CCCCNC(=O)CCCc2ccc(I)cc2)NC(=O)[C@H](CS(=O)(=O)O)NC(=O)CN2CCN(CC(=O)O)CCN(CC(=O)O)CCN(CC(=O)O)CC2)C(=O)N[C@@H](Cc2ccc(O)cc2)C(=O)N[C@@H](CCCCNC(C)C)C(=O)N[C@H](CCCNC(=N)N)C(=O)N[C@@H](Cc2ccc3ccccc3c2)C(=O)N[C@H](C)C(=O)N1)C(N)=O [[^177Lu]Lu-BL34L11] [metal not drawn] (K(X1)Y[Lys(iPr)][dR][2Nal][dA][dE][Lys(iPr)]-NH2; lactam N-7)
[2]; 1 h
  Biodistribution: Adrenals: 3.76 % ID/g
  Biodistribution: Blood: 18.59 % ID/g
  Biodistribution: Bone: 1.16 % ID/g
  Biodistribution: Brain: 0.29 % ID/g
  Biodistribution: Heart: 4.23 % ID/g
  Biodistribution: Kidneys: 5.23 % ID/g
  Biodistribution: Liver: 3.14 % ID/g
  Biodistribution: Lungs: 14.83 % ID/g
  Biodistribution: Muscle: 1.20 % ID/g
  Biodistribution: Pancreas: 1.80 % ID/g
  Biodistribution: Small Intestine: 1.56 % ID/g
  Biodistribution: Spleen: 1.56 % ID/g
  Biodistribution: Stomach: 0.61 % ID/g
  Biodistribution: Testes: 2.49 % ID/g
  Biodistribution: Z138 Tumor: 4.09 % ID/g
  Ratio Tumor-to-Blood: 0.22
  Ratio Tumor-to-Bone: 2.39
  Ratio Tumor-to-Kidney: 0.78
  Ratio Tumor-to-Muscle: 3.35
  Ratio Tumor-to-Pancreas: 2.31
[2]; 3 h
  Biodistribution: Adrenals: 3.12 % ID/g
  Biodistribution: Blood: 14.23 % ID/g
  Biodistribution: Bone: 0.97 % ID/g
  Biodistribution: Brain: 0.22 % ID/g
  Biodistribution: Heart: 3.34 % ID/g
  Biodistribution: Kidneys: 3.92 % ID/g
  Biodistribution: Liver: 3.18 % ID/g
  Biodistribution: Lungs: 7.95 % ID/g
  Biodistribution: Muscle: 1.25 % ID/g
  Biodistribution: Pancreas: 1.54 % ID/g
  Biodistribution: Small Intestine: 1.35 % ID/g
  Biodistribution: Spleen: 2.03 % ID/g
  Biodistribution: Stomach: 0.83 % ID/g
  Biodistribution: Testes: 3.53 % ID/g
  Biodistribution: Z138 Tumor: 9.81 % ID/g
  Ratio Tumor-to-Blood: 0.69
  Ratio Tumor-to-Bone: 8.14
  Ratio Tumor-to-Kidney: 2.52
  Ratio Tumor-to-Muscle: 7.89
  Ratio Tumor-to-Pancreas: 6.59

## CC(C)NCCCC[C@H](NC(=O)[C@H]1CCC(=O)N[C@@H](CCCCNC(=O)[C@H](CS(=O)(=O)O)NC(=O)CN2CCOCCN(CC(=O)O)CCN(CC(=O)O)CCOCCN(CC(=O)O)CC2)C(=O)N[C@@H](Cc2ccc(O)cc2)C(=O)N[C@@H](CCCCNC(C)C)C(=O)N[C@H](CCCNC(=N)N)C(=O)N[C@@H](Cc2ccc3ccccc3c2)C(=O)N[C@H](C)C(=O)N1)C(N)=O [[^177Lu]Lu-crown-BL34L20, metal not drawn] (K([Cya-X2])Y[Lys(iPr)][dR][2Nal][dA][dE][Lys(iPr)]-NH2; lactam N-7)
[3]; Adrenals
  tissue uptake at 1 h: 0.2 %ID/g
  tissue uptake at 3 h: 0.11 %ID/g
  tissue uptake at 24 h: 0.1 %ID/g
  tissue uptake at 72 h: 0.08 %ID/g
  tissue uptake at 120 h: 0.05 %ID/g
[3]; Blood
  tissue uptake at 1 h: 0.35 %ID/g
  tissue uptake at 3 h: 0.08 %ID/g
  tissue uptake at 24 h: 0.02 %ID/g
  tissue uptake at 72 h: 0.01 %ID/g
[3]; Bone
  tissue uptake at 1 h: 0.15 %ID/g
  tissue uptake at 3 h: 0.15 %ID/g
  tissue uptake at 24 h: 0.51 %ID/g
  tissue uptake at 72 h: 0.66 %ID/g
  tissue uptake at 120 h: 0.56 %ID/g
[3]; Brain
  tissue uptake at 1 h: 0.01 %ID/g
  tissue uptake at 3 h: 0.01 %ID/g
  tissue uptake at 24 h: 0.01 %ID/g
  tissue uptake at 72 h: 0.01 %ID/g
[3]; Heart
  tissue uptake at 1 h: 0.14 %ID/g
  tissue uptake at 3 h: 0.06 %ID/g
  tissue uptake at 24 h: 0.05 %ID/g
  tissue uptake at 72 h: 0.05 %ID/g
  tissue uptake at 120 h: 0.05 %ID/g
[3]; Kidneys
  tissue uptake at 1 h: 3.02 %ID/g
  tissue uptake at 3 h: 2.45 %ID/g
  tissue uptake at 24 h: 1.81 %ID/g
  tissue uptake at 72 h: 0.94 %ID/g
  tissue uptake at 120 h: 0.59 %ID/g
[3]; Liver
  tissue uptake at 1 h: 0.73 %ID/g
  tissue uptake at 3 h: 0.77 %ID/g
  tissue uptake at 24 h: 0.81 %ID/g
  tissue uptake at 72 h: 0.67 %ID/g
  tissue uptake at 120 h: 0.59 %ID/g
[3]; Lungs
  tissue uptake at 1 h: 0.53 %ID/g
  tissue uptake at 3 h: 0.28 %ID/g
  tissue uptake at 24 h: 0.2 %ID/g
  tissue uptake at 72 h: 0.17 %ID/g
  tissue uptake at 120 h: 0.15 %ID/g
[3]; Muscle
  tissue uptake at 1 h: 0.09 %ID/g
  tissue uptake at 3 h: 0.03 %ID/g
  tissue uptake at 24 h: 0.03 %ID/g
  tissue uptake at 72 h: 0.02 %ID/g
  tissue uptake at 120 h: 0.01 %ID/g
[3]; Pancreas
  tissue uptake at 1 h: 0.12 %ID/g
  tissue uptake at 3 h: 0.04 %ID/g
  tissue uptake at 24 h: 0.04 %ID/g
  tissue uptake at 72 h: 0.03 %ID/g
  tissue uptake at 120 h: 0.03 %ID/g
[3]; Small Intestine
  tissue uptake at 1 h: 0.23 %ID/g
  tissue uptake at 3 h: 0.1 %ID/g
  tissue uptake at 24 h: 0.17 %ID/g
  tissue uptake at 72 h: 0.08 %ID/g
  tissue uptake at 120 h: 0.06 %ID/g
[3]; Spleen
  tissue uptake at 1 h: 0.29 %ID/g
  tissue uptake at 3 h: 0.23 %ID/g
  tissue uptake at 24 h: 0.26 %ID/g
  tissue uptake at 72 h: 0.24 %ID/g
  tissue uptake at 120 h: 0.22 %ID/g
[3]; Stomach
  tissue uptake at 1 h: 0.08 %ID/g
  tissue uptake at 3 h: 0.09 %ID/g
  tissue uptake at 24 h: 0.52 %ID/g
  tissue uptake at 72 h: 0.12 %ID/g
  tissue uptake at 120 h: 0.14 %ID/g
[3]; Testes
  tissue uptake at 1 h: 0.11 %ID/g
  tissue uptake at 3 h: 0.04 %ID/g
  tissue uptake at 24 h: 0.04 %ID/g
  tissue uptake at 72 h: 0.03 %ID/g
  tissue uptake at 120 h: 0.03 %ID/g
[3]; Z138 Tumor
  tissue uptake at 1 h: 13.7 %ID/g
  tissue uptake at 3 h: 11.7 %ID/g
  tissue uptake at 24 h: 7.28 %ID/g
  tissue uptake at 72 h: 3.47 %ID/g
  tissue uptake at 120 h: 2.38 %ID/g
[3]; Tumor-to-Blood ratio
  tissue to tissue ratio at 1 h: 39.4
  tissue to tissue ratio at 3 h: 147
  tissue to tissue ratio at 24 h: 301
  tissue to tissue ratio at 72 h: 396
  tissue to tissue ratio at 120 h: 607
[3]; Tumor-to-Bone ratio
  tissue to tissue ratio at 1 h: 94
  tissue to tissue ratio at 3 h: 83.2
  tissue to tissue ratio at 24 h: 15.3
  tissue to tissue ratio at 72 h: 5.53
  tissue to tissue ratio at 120 h: 5.33
[3]; Tumor-to-Kidney ratio
  tissue to tissue ratio at 1 h: 4.54
  tissue to tissue ratio at 3 h: 4.78
  tissue to tissue ratio at 24 h: 4.01
  tissue to tissue ratio at 72 h: 3.69
  tissue to tissue ratio at 120 h: 4.1
[3]; Tumor-to-Muscle ratio
  tissue to tissue ratio at 1 h: 161
  tissue to tissue ratio at 3 h: 430
  tissue to tissue ratio at 24 h: 281
  tissue to tissue ratio at 72 h: 175
  tissue to tissue ratio at 120 h: 178
[3]; Tumor-to-Pancreas ratio
  tissue to tissue ratio at 1 h: 140
  tissue to tissue ratio at 3 h: 276
  tissue to tissue ratio at 24 h: 198
  tissue to tissue ratio at 72 h: 103
  tissue to tissue ratio at 120 h: 78
